Experimental data as given in article PMC11884936, “MDC1 mediates Pellino recruitment to sites of DNA double-strand breaks” (Life Science Alliance, 2025).
Square brackets hold non-standard residues; d marks the D form. pT = C[C@@H](OP(=O)(O)O)[C@H](N)C(=O)O; pS = N[C@@H](COP(=O)(O)O)C(=O)O

T1: Pellino 1 FHA (PELI1 residues 13-273) (human, UniProt Q96FA3 13-273)
T1 construct: Cloned into pGEX-6P1; same preparation for ITC and crystallography by the methods; also called PELI1 (13–273); N-terminal PELI1 fragment; source: E. coli BL21 (DE3), purified (Glutathione Sepharose, 3C cleavage, gel filtration); not shown: GST, N-terminal, cleaved
T1 sequence (looked up): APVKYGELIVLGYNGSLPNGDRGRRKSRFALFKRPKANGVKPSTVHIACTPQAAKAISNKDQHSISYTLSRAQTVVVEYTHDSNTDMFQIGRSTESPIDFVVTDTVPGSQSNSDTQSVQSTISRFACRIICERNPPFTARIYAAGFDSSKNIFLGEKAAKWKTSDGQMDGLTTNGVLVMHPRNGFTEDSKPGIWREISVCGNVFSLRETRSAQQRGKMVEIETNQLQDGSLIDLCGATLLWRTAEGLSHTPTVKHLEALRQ

T2: Pellino 2 FHA (PELI2 residues 15-275) (human, UniProt Q9HAT8 15-275)
T2 construct: Cloned into pGEX-6P1; also called PELI2 (15–273); N-terminal PELI2 fragment; source: E. coli BL21 (DE3), purified (Glutathione Sepharose, 3C cleavage, gel filtration); not shown: GST, N-terminal, cleaved
T2 sequence (looked up): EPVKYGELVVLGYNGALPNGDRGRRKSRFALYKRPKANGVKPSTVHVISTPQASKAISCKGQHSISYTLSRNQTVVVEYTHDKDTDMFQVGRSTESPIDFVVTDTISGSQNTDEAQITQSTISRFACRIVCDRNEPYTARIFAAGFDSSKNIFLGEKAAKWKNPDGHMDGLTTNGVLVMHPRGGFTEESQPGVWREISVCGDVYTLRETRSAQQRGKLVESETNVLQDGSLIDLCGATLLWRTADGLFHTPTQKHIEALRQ


Assays:
Assay in all cases: ITC; peptide in the syringe (typically 160 μM), protein in the cell (16 μM); 25 mM HEPES pH 7.0, 200 mM NaCl, 1 mM TCEP; single-site binding model
Conditions in all cases: both partners purified
[1] = biological target: T1, Pellino 1 FHA (PELI1 residues 13-273)
[2] = biological target: T2, Pellino 2 FHA (PELI2 residues 15-275)
[3] = biological target: T3, MDC1 BRCT-repeat fragment (human)
T3 construct: MDC1, BRCT-repeat fragment; source: purified

Row | Binder | Kd [1] [nM] | dH [1] [kcal/mol] | stoichiometry N [1] | Kd [2] [nM] | dH [2] [kcal/mol] | stoichiometry N [2] | Kd [3] [nM] | dH [3] [kcal/mol] | stoichiometry N [3]
1 | Ac-AYDLQA[pT]QCFA-NH2 (SMILES CC(=O)N[C@@H](C)C(=O)N[C@@H](Cc1ccc(O)cc1)C(=O)N[C@@H](CC(=O)O)C(=O)N[C@@H](CC(C)C)C(=O)N[C@@H](CCC(N)=O)C(=O)N[C@@H](C)C(=O)N[C@H](C(=O)N[C@@H](CCC(N)=O)C(=O)N[C@@H](CS)C(=O)N[C@@H](Cc1ccccc1)C(=O)N[C@@H](C)C(N)=O)[C@@H](C)OP(=O)(O)O, human MDC1, stretch around T699 with alanine at pT+4; source: synthetic peptide) [MDC1-pT699 phosphopeptide for ITC (AYDLQApTQCFA)] | 2010 | -18.5 | 0.36 | 1120 | -19.9 | 0.55 |  |  | 
2 | Ac-GGKATQA[pS]QEY-NH2 (SMILES CC(=O)NCC(=O)NCC(=O)N[C@@H](CCCCN)C(=O)N[C@@H](C)C(=O)N[C@H](C(=O)N[C@@H](CCC(N)=O)C(=O)N[C@@H](C)C(=O)N[C@@H](COP(=O)(O)O)C(=O)N[C@@H](CCC(N)=O)C(=O)N[C@@H](CCC(=O)O)C(=O)N[C@@H](Cc1ccc(O)cc1)C(N)=O)[C@@H](C)O) [H2AX-pS139 phosphopeptide for ITC (GGKATQApSQEY)] |  |  |  |  |  |  | 850 | -13.9 | 0.6
3 | Ac-AYEVLA[pT]QPFC-NH2 (SMILES CC(=O)N[C@@H](C)C(=O)N[C@@H](Cc1ccc(O)cc1)C(=O)N[C@@H](CCC(=O)O)C(=O)N[C@H](C(=O)N[C@@H](CC(C)C)C(=O)N[C@@H](C)C(=O)N[C@H](C(=O)N[C@@H](CCC(N)=O)C(=O)N1CCC[C@H]1C(=O)N[C@@H](Cc1ccccc1)C(=O)N[C@@H](CS)C(N)=O)[C@@H](C)OP(=O)(O)O)C(C)C, two N-terminal residues that are not the MDC1 residues at this place; human MDC1, stretch around T752; Natural stretch with two added N-terminal residues (AY); source: synthetic peptide) [MDC1-pT752 phosphopeptide for ITC (AYEVLApTQPFC)] | 1140 | -18.5 | 0.74 | 1060 | -28.2 | 0.69 |  |  | 

Next, values leading:

Row | Kd [1] [nM] | dH [1] [kcal/mol] | stoichiometry N [1] | Kd [2] [nM] | dH [2] [kcal/mol] | stoichiometry N [2] | Kd [3] [nM] | dH [3] [kcal/mol] | stoichiometry N [3] | Binder
4 | 1140 | -21.8 | 0.78 | 1220 | -34.7 | 0.52 |  |  |  | Ac-AYEDEP[pT]QAFA-NH2 (SMILES CC(=O)N[C@@H](C)C(=O)N[C@@H](Cc1ccc(O)cc1)C(=O)N[C@@H](CCC(=O)O)C(=O)N[C@@H](CC(=O)O)C(=O)N[C@@H](CCC(=O)O)C(=O)N1CCC[C@H]1C(=O)N[C@H](C(=O)N[C@@H](CCC(N)=O)C(=O)N[C@@H](C)C(=O)N[C@@H](Cc1ccccc1)C(=O)N[C@@H](C)C(N)=O)[C@@H](C)OP(=O)(O)O) [MDC1-pT719 phosphopeptide for ITC (AYEDEPpTQAFA)]
5 | 230 | -22 | 0.62 | 370 | -32.7 | 0.69 |  |  |  | Ac-AYEDSE[pT]QPFD-NH2 (SMILES CC(=O)N[C@@H](C)C(=O)N[C@@H](Cc1ccc(O)cc1)C(=O)N[C@@H](CCC(=O)O)C(=O)N[C@@H](CC(=O)O)C(=O)N[C@@H](CO)C(=O)N[C@@H](CCC(=O)O)C(=O)N[C@H](C(=O)N[C@@H](CCC(N)=O)C(=O)N1CCC[C@H]1C(=O)N[C@@H](Cc1ccccc1)C(=O)N[C@@H](CC(=O)O)C(N)=O)[C@@H](C)OP(=O)(O)O, two N-terminal residues that are not the MDC1 residues at this place; human MDC1, stretch around T765; Natural stretch with two added N-terminal residues (AY); The crystallisation methods name only 'the MDC1-pT765 phosphopeptide'; also called MDC1-pT765 (Site 4) phosphopeptide; MDC1 p765 peptide; source: synthetic peptide) [MDC1-pT765 phosphopeptide for ITC and crystallisation (AYEDSEpTQPFD)]
6 | 420 | -17.4 | 0.7 | 700 | -25.8 | 0.59 |  |  |  | Ac-AYSSAS[pT]FLYP-NH2 (SMILES CC(=O)N[C@@H](C)C(=O)N[C@@H](Cc1ccc(O)cc1)C(=O)N[C@@H](CO)C(=O)N[C@@H](CO)C(=O)N[C@@H](C)C(=O)N[C@@H](CO)C(=O)N[C@H](C(=O)N[C@@H](Cc1ccccc1)C(=O)N[C@@H](CC(C)C)C(=O)N[C@@H](Cc1ccc(O)cc1)C(=O)N1CCC[C@H]1C(N)=O)[C@@H](C)OP(=O)(O)O, two N-terminal residues as in the other ITC peptides; IRAK1, stretch around T141 with tyrosine at pT+3; also called IRAK-pT141(+3Y); source: synthetic peptide) [IRAK1-pT141(+3Y) phosphopeptide (AYSSASpTFLYP)]
